# Measured values published in article PMC10689933 (Molecular Therapy Oncolytics, 2023).
# T1: His-tagged CD24 antigen (Homo sapiens (species assumed), UniProt P25063)
# T1 chain: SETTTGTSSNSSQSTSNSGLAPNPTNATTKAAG
# T2: CD24, membrane-associated, on human cells (Homo sapiens, UniProt P25063)
# T2 chain: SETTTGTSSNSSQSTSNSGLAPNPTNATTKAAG
# What was measured:
# [1] = target: T1, His-tagged CD24 antigen; test: ELISA
# [2] = target: T2, CD24, membrane-associated, on human …; test: flow cytometry on cells
binder,measurement,setting,value
"PPAB001, bispecific antibody fusion protein against CD47 and CD24 (bispecific antibody, V domains shown) VH: VKLVESGGGLVQPGGSLKLSCAASGDSVTSKSMSWVRQAPSGGLQWIGRTYPDNGDSSYTPSVRSRFIISRDNAKNTLYLQMRKVRSEDTGFYYCARQGDYWGQGTTLTVSS VL: DVVMTQTPLTLSLSPGQPASISCKSSQSGSIGRAKTYLNWYQQRPGQAPKLLIYDASKLDSGVPDRFTGSGSGTDFTLKISRVEAEDLGVYYCWQGTHFPYTFGGGTKLEIK",binding result,[1],binds
same,binding result,[2],binds
"humanized anti-CD24 antibody with common light chain (antibody, V domains shown) VH: VKLVESGGGLVQPGGSLKLSCAASGDSVTSKSMSWVRQAPSGGLQWIGRTYPDNGDSSYTPSVRSRFIISRDNAKNTLYLQMRKVRSEDTGFYYCARQGDYWGQGTTLTVSS VL: DVVMTQTPLTLSLSPGQPASISCKSSQSGSIGRAKTYLNWYQQRPGQAPKLLIYDASKLDSGVPDRFTGSGSGTDFTLKISRVEAEDLGVYYCWQGTHFPYTFGGGTKLEIK",binding result,[2],binds
